The target of assay [1] is mCherry-RZZ (ROD-Zwilch-ZW10 complex, wild type) (UniProt P50748 1-2209; Q9H900 1-591; O43264 1-779). The assay can be described thus: SEC.
Assay [2] deals with R^EEZZ (RZZ with phosphomimetic ROD T13E-S15E) (UniProt P50748 1-2209; Q9H900 1-591; O43264 1-779, T13E | S15E). In words: pull-down.
Chain of R^EEZZ (RZZ with phosphomimetic ROD T13E-S15E) (P50748 whole entry T13E/S15E, chain 1 of 3): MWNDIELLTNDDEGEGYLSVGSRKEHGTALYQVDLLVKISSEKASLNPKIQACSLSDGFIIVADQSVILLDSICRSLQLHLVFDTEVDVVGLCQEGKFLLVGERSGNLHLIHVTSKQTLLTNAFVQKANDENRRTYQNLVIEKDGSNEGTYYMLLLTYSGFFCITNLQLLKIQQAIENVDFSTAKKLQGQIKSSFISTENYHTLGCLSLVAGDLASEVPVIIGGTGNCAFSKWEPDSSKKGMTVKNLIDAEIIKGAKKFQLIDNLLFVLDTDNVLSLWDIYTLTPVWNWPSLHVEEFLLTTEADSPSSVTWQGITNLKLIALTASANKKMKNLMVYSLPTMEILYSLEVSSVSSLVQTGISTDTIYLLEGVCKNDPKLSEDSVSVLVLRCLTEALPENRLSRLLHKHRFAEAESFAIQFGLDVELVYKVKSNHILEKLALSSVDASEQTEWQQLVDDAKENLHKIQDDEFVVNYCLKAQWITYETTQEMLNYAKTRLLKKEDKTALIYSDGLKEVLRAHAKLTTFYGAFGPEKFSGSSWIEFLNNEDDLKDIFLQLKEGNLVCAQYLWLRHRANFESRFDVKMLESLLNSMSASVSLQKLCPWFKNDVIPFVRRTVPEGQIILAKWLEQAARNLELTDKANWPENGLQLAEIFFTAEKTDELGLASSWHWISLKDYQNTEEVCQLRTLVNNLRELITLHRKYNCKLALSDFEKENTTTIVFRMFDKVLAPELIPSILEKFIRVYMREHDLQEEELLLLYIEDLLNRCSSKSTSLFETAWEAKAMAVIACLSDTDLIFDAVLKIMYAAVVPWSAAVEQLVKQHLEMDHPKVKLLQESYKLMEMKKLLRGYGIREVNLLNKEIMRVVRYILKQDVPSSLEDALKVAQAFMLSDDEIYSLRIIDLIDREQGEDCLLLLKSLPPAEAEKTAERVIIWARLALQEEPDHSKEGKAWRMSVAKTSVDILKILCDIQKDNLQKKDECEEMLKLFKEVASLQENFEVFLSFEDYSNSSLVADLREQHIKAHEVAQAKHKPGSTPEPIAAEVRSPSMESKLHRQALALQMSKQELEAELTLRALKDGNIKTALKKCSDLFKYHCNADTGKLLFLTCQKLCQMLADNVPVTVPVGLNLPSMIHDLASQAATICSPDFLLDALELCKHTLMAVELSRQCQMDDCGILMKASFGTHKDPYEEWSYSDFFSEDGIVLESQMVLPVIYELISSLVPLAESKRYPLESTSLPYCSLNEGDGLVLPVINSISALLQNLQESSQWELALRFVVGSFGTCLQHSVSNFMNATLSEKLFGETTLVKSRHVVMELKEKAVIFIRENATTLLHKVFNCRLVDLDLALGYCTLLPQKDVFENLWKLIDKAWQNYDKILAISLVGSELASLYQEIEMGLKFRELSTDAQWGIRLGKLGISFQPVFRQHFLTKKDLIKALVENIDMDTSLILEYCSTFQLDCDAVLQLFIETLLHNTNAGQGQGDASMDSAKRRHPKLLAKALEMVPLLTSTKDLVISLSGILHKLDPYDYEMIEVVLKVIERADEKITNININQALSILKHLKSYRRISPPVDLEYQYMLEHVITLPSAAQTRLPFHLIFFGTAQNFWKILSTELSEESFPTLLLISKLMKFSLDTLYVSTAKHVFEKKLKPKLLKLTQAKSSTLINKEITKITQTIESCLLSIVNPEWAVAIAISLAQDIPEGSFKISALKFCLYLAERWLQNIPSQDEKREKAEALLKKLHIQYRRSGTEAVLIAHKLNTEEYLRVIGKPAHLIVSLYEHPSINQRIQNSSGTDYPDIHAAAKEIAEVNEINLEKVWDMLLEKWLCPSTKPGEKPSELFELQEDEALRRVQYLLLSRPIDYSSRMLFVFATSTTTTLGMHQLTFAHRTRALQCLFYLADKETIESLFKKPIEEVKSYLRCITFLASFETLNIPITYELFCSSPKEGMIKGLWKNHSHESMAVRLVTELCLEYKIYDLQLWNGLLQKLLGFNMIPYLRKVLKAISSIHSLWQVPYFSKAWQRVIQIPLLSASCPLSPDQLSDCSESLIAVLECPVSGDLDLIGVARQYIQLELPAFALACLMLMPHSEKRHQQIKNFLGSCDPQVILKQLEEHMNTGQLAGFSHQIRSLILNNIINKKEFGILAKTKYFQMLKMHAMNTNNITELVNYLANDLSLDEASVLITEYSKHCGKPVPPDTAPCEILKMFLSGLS
Chain of R^EEZZ (RZZ with phosphomimetic ROD T13E-S15E) (Q9H900 whole entry, chain 2 of 3): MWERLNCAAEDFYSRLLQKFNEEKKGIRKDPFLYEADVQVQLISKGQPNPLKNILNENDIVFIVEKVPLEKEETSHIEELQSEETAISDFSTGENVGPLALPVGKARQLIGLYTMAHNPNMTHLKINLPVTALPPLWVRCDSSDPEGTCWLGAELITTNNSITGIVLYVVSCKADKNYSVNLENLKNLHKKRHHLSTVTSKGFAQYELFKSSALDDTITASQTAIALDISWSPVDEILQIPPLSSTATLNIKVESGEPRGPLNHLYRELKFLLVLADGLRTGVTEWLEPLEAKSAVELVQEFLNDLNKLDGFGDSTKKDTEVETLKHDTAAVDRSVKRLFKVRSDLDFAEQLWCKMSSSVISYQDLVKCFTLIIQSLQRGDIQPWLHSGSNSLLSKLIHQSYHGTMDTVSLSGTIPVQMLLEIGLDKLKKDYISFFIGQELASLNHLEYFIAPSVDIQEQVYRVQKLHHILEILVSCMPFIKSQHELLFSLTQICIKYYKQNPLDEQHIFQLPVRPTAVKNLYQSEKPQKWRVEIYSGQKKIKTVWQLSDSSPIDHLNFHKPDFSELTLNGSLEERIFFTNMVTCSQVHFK
Chain of R^EEZZ (RZZ with phosphomimetic ROD T13E-S15E) (O43264 whole entry, chain 3 of 3): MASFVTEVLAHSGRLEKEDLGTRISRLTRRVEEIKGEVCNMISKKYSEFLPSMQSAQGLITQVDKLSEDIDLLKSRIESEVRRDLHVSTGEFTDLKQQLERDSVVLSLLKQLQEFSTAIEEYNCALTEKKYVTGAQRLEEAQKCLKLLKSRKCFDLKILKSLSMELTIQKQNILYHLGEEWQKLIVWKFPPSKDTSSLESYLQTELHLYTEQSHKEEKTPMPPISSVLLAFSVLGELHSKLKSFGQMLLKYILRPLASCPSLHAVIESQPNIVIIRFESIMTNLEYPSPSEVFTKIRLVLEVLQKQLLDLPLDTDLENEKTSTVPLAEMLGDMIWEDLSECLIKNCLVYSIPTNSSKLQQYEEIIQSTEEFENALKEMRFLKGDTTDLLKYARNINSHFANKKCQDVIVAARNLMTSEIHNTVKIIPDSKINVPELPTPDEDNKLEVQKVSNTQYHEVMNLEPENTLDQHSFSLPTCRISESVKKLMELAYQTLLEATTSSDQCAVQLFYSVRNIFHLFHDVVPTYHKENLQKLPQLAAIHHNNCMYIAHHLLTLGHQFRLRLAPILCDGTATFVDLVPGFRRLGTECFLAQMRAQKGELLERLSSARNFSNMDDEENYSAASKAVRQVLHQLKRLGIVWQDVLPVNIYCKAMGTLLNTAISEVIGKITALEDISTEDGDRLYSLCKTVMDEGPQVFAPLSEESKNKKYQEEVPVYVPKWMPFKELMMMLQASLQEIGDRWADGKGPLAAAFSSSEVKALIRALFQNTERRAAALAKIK

Chain of mCherry-RZZ (ROD-Zwilch-ZW10 complex, wild type) (P50748 whole entry, chain 1 of 3): as the sequence (P50748 whole entry T13E/S15E, chain 1 of 3) above, with E13T, E15S counted along it
Chain of mCherry-RZZ (ROD-Zwilch-ZW10 complex, wild type) (Q9H900 whole entry, chain 2 of 3): as the sequence (Q9H900 whole entry, chain 2 of 3) above
Chain of mCherry-RZZ (ROD-Zwilch-ZW10 complex, wild type) (O43264 whole entry, chain 3 of 3): as the sequence (O43264 whole entry, chain 3 of 3) above

B1: GST-BUB1^467-521 (domain or fragment, UniProt O43683 467-521, looked up)
chain: ALGFIMNMFQAPTLPDISDDKDEWQSLDQNEDAFEAQFQKNVRSSGAWGVNKIIS
For B1, the binding result in assay [1] and in assay [2] was “binds” throughout.

For the origin of these results see paper doi:10.1101/2025.06.17.660062 (bioRxiv, 2025).
